According to article PMC3155616 (Cell, 2011):

Target: E. coli SSB (wild type single-stranded DNA binding protein, homotetramer) (E. coli, UniProt P0AGE0 1-178)
Assay: ITC

Chain of E. coli SSB (wild type single-stranded DNA binding protein, homotetramer) (P0AGE0 whole entry): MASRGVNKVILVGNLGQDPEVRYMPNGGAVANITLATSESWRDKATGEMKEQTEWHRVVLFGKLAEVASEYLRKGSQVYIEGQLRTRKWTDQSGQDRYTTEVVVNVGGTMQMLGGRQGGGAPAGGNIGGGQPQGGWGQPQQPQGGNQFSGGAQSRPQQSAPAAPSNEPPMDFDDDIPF

B1: E. coli RecO protein (natural protein, UniProt P0A7H3 1-242, looked up)
chain: MEGWQRAFVLHSRPWSETSLMLDVFTEESGRVRLVAKGARSKRSTLKGALQPFTPLLLRFGGRGEVKTLRSAEAVSLALPLSGITLYSGLYINELLSRVLEYETRFSELFFDYLHCIQSLAGVTGTPEPALRRFELALLGHLGYGVNFTHCAGSGEPVDDTMTYRYREEKGFIASVVIDNKTFTGRQLKALNAREFPDADTLRAAKRFTRMALKPYLGGKPLKSRELFRQFMPKRTVKTHYE
For B1, the “stoichiometry N” value was 1 RecO per SSB C-terminal tail (four tails per tetramer).
